Source: patent US20260274955A1 (JANUX THERAPEUTICS, published 2026)

What was measured:
[1] = target: Anti-CD28 Fab (SEQ ID NOs: 202, 203); assay: phage binding ELISA on captured Fab, competitor CD28 antigen;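 further: clonal phage supernatant binding in wells preincubated with CD28 antigen in blocking buffer, detected by HRP-conjugated anti-M13 antibody ELISA, compared with blocking buffer alone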
[2] = target: Anti-CD28 Fab (SEQ ID NOs: 202, 203); assay: phage binding ELISA on captured Fab;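 further: clonal phage supernatants added briefly to wells pre-incubated with CD28 antigen or with blocking buffer only, then washed, bound phage read by ELISA using HRP-coupled anti-M13 antibody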
[3] = target: T1, Anti-CD28 Fab (SEQ ID NOs: 202, 203); assay: phage ELISA on captured biotinylated Fab;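 further: wells preblocked with or without CD28 antigen, then clonal phage supernatant added briefly, washed, and bound phage read out by ELISA using HRP-linked anti-M13 antibody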
T1 construct: biotinylated and captured on neutravidin coated plates in the phage ELISA

[4] = target: T1, Anti-CD28 Fab (SEQ ID NOs: 202, 203); assay: phage ELISA on captured Fab, wells pre-incubated with CD28 antigen (competitor: CD28);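 further: bound clonal phage detected with an HRP-linked anti-M13 antibody, compared against wells that received blocking buffer alone without CD28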

In the case of YCDGHTGMYISKCL [Phage-774], the “Anti-CD28 Fab signal in the presence of CD28” value (shortened to “Anti-CD28 Fab signal … of CD28”) [1] is reported as 0.06 and the “Anti-CD28 Fab (SEQ ID NOs: 202, 203) signal” value [2] is reported as 0.98.

In the case of YCEGHTQAYLAKCL [Phage-792], the “Anti-CD28 Fab signal … of CD28” value [1] is reported as 0.1 and the “Anti-CD28 Fab (SEQ ID NOs: 202, 203) signal” value [2] is reported as 0.93.

For YCDGHLPQYMSKCL [Phage-262], the “Anti-CD28 Fab signal” value [3] was 2 and the “Anti-CD28 Fab signal … of CD28” value [4] was 0.1.

With YCDGHMPQYMSKCL [Phage-266] the “Anti-CD28 Fab signal” value [3] was 1.98 and the “Anti-CD28 Fab signal … of CD28” value [4] was 0.08.

With YCEGHDIRYMMKCL [Phage-785] the “Anti-CD28 Fab signal … of CD28” value [1] was 0.08 and the “Anti-CD28 Fab (SEQ ID NOs: 202, 203) signal” value [2] was 0.95.

In the case of YCMGHQPEYMQKCL [Phage-291], the “Anti-CD28 Fab signal” value [3] is reported as 1.93 and the “Anti-CD28 Fab signal … of CD28” value [4] is reported as 0.08.

YCEGHVPEYLVKCL [Phage-778] was tested, and the “Anti-CD28 Fab signal … of CD28” value [1] was 0.06 and the “Anti-CD28 Fab (SEQ ID NOs: 202, 203) signal” value [2] was 0.96.

For YCEGHLPSYLAKCL [Phage-753], the “Anti-CD28 Fab signal … of CD28” value [1] was 0.06 and the “Anti-CD28 Fab (SEQ ID NOs: 202, 203) signal” value [2] was 1.05.

YCDGHHAEYMWKCL [Phage-791] was tested, and the “Anti-CD28 Fab signal … of CD28” value [1] was 0.06 and the “Anti-CD28 Fab (SEQ ID NOs: 202, 203) signal” value [2] was 0.93.

For YCDGHFREYMQKCL [Phage-242], the “Anti-CD28 Fab signal” value [3] was 2.04 and the “Anti-CD28 Fab signal … of CD28” value [4] was 0.06.

In the case of YCAGHSAQYMWKCL [Phage-793], the “Anti-CD28 Fab signal … of CD28” value [1] is reported as 0.07 and the “Anti-CD28 Fab (SEQ ID NOs: 202, 203) signal” value [2] is reported as 0.92.

In the case of YCDGHSSAYIDKCL [Phage-752], the “Anti-CD28 Fab signal … of CD28” value [1] is reported as 0.06 and the “Anti-CD28 Fab (SEQ ID NOs: 202, 203) signal” value [2] is reported as 1.05.

In the case of YCDGHEERYMAKCL [Phage-786], the “Anti-CD28 Fab signal … of CD28” value [1] is reported as 0.06 and the “Anti-CD28 Fab (SEQ ID NOs: 202, 203) signal” value [2] is reported as 0.94.

With YCSGHVPEYMEKCL [Phage-787] the “Anti-CD28 Fab signal … of CD28” value [1] was 0.06 and the “Anti-CD28 Fab (SEQ ID NOs: 202, 203) signal” value [2] was 0.94.

In the case of YCAGHTPEYLDKCL [Phage-784], the “Anti-CD28 Fab signal … of CD28” value [1] is reported as 0.06 and the “Anti-CD28 Fab (SEQ ID NOs: 202, 203) signal” value [2] is reported as 0.95.

In the case of YCEGHSSAYMRKCL [Phage-758], the “Anti-CD28 Fab signal … of CD28” value [1] is reported as 0.06 and the “Anti-CD28 Fab (SEQ ID NOs: 202, 203) signal” value [2] is reported as 1.04.

YCEGHLSQYMQKCL [Phage-259] was tested, and the “Anti-CD28 Fab signal” value [3] was 2 and the “Anti-CD28 Fab signal … of CD28” value [4] was 0.09.

With YCFGHFPEYMAKCL [Phage-773] the “Anti-CD28 Fab signal … of CD28” value [1] was 0.07 and the “Anti-CD28 Fab (SEQ ID NOs: 202, 203) signal” value [2] was 0.98.

In the case of YCEGHSVEYILKCL [Phage-757], the “Anti-CD28 Fab signal … of CD28” value [1] is reported as 0.06 and the “Anti-CD28 Fab (SEQ ID NOs: 202, 203) signal” value [2] is reported as 1.04.

In the case of YCDGHSKEYMSKCL [Phage-779], the “Anti-CD28 Fab signal … of CD28” value [1] is reported as 0.07 and the “Anti-CD28 Fab (SEQ ID NOs: 202, 203) signal” value [2] is reported as 0.96.

For YCDGHSGEYMSKCL [Phage-819], the “Anti-CD28 Fab signal … of CD28” value [1] was 0.06 and the “Anti-CD28 Fab (SEQ ID NOs: 202, 203) signal” value [2] was 0.82.

YCDGHIKEYMSKCL [Phage-799] was tested, and the “Anti-CD28 Fab signal … of CD28” value [1] was 0.08 and the “Anti-CD28 Fab (SEQ ID NOs: 202, 203) signal” value [2] was 0.91.

In the case of YCDGHSAEYLAKCL [Phage-293], the “Anti-CD28 Fab signal” value [3] is reported as 1.93 and the “Anti-CD28 Fab signal … of CD28” value [4] is reported as 0.08.

With YCDGHLWEYMDKCL [Phage-269] the “Anti-CD28 Fab signal” value [3] was 1.97 and the “Anti-CD28 Fab signal … of CD28” value [4] was 0.06.

YCDGHDARYMTKCL [Phage-756] was tested, and the “Anti-CD28 Fab signal … of CD28” value [1] was 0.09 and the “Anti-CD28 Fab (SEQ ID NOs: 202, 203) signal” value [2] was 1.04.

For YCAGHAEIYMQKCL [Phage-789], the “Anti-CD28 Fab signal … of CD28” value [1] was 0.05 and the “Anti-CD28 Fab (SEQ ID NOs: 202, 203) signal” value [2] was 0.93.

With YCAGHLPMYMHKCL [Phage-264] the “Anti-CD28 Fab signal” value [3] was 1.99 and the “Anti-CD28 Fab signal … of CD28” value [4] was 0.18.

In the case of YCAGHAAEYMWKCL [Phage-776], the “Anti-CD28 Fab signal … of CD28” value [1] is reported as 0.06 and the “Anti-CD28 Fab (SEQ ID NOs: 202, 203) signal” value [2] is reported as 0.97.

YCDGHLPIYMTQCL [Phage-271] was tested, and the “Anti-CD28 Fab signal” value [3] was 1.97 and the “Anti-CD28 Fab signal … of CD28” value [4] was 0.08.

With YCQGHFPQYMAKCL [Phage-777] the “Anti-CD28 Fab signal … of CD28” value [1] was 0.07 and the “Anti-CD28 Fab (SEQ ID NOs: 202, 203) signal” value [2] was 0.97.

In the case of YCEGHAPQYMSKCL [Phage-755], the “Anti-CD28 Fab signal … of CD28” value [1] is reported as 0.08 and the “Anti-CD28 Fab (SEQ ID NOs: 202, 203) signal” value [2] is reported as 1.04.

In the case of YCDGHLPEYMLKCL [Phage-780], the “Anti-CD28 Fab signal … of CD28” value [1] is reported as 0.09 and the “Anti-CD28 Fab (SEQ ID NOs: 202, 203) signal” value [2] is reported as 0.96.

In the case of YCDGHLPEYMEKCL [Phage-880], the “Anti-CD28 Fab signal … of CD28” value [1] is reported as 0.07 and the “Anti-CD28 Fab (SEQ ID NOs: 202, 203) signal” value [2] is reported as 0.43.

With YCDGHLPRYMEKCM [Phage-751] the “Anti-CD28 Fab signal … of CD28” value [1] was 0.06 and the “Anti-CD28 Fab (SEQ ID NOs: 202, 203) signal” value [2] was 1.05.

YCEGHLPMYFLKCM [Phage-270] was tested, and the “Anti-CD28 Fab signal” value [3] was 1.97 and the “Anti-CD28 Fab signal … of CD28” value [4] was 0.06.

YCDGHSFEYMAKCL [Phage-794] was tested, and the “Anti-CD28 Fab signal … of CD28” value [1] was 0.06 and the “Anti-CD28 Fab (SEQ ID NOs: 202, 203) signal” value [2] was 0.92.

For YCDGHSMEYMAKCL [Phage-821], the “Anti-CD28 Fab signal … of CD28” value [1] was 0.07 and the “Anti-CD28 Fab (SEQ ID NOs: 202, 203) signal” value [2] was 0.8.

For YCSGHSWAYIGKCL [Phage-775], the “Anti-CD28 Fab signal … of CD28” value [1] was 0.07 and the “Anti-CD28 Fab (SEQ ID NOs: 202, 203) signal” value [2] was 0.98.

In the case of YCAGHSPEFMEKCL [Phage-297], the “Anti-CD28 Fab signal” value [3] is reported as 1.91 and the “Anti-CD28 Fab signal … of CD28” value [4] is reported as 0.06.

With YCEGHAAEYMMKCL [Phage-263] the “Anti-CD28 Fab signal” value [3] was 1.99 and the “Anti-CD28 Fab signal … of CD28” value [4] was 0.07.

In the case of YCEGHRAEYMEKCL [Phage-288], the “Anti-CD28 Fab signal” value [3] is reported as 1.93 and the “Anti-CD28 Fab signal … of CD28” value [4] is reported as 0.06.

YCDGHIPQYVEKCL [Phage-788] was tested, and the “Anti-CD28 Fab signal … of CD28” value [1] was 0.08 and the “Anti-CD28 Fab (SEQ ID NOs: 202, 203) signal” value [2] was 0.94.

YCEGHAHEYMEKCV [Phage-790] was tested, and the “Anti-CD28 Fab signal … of CD28” value [1] was 0.07 and the “Anti-CD28 Fab (SEQ ID NOs: 202, 203) signal” value [2] was 0.93.

In the case of YCEGHSAIYIAKCM [Phage-772], the “Anti-CD28 Fab signal … of CD28” value [1] is reported as 0.11 and the “Anti-CD28 Fab (SEQ ID NOs: 202, 203) signal” value [2] is reported as 0.98.

In the case of YCEGHLAEYMDKCL [Phage-272], the “Anti-CD28 Fab signal” value [3] is reported as 1.96 and the “Anti-CD28 Fab signal … of CD28” value [4] is reported as 0.07.

With YCAGHASEYLQKCL [Phage-881] the “Anti-CD28 Fab signal … of CD28” value [1] was 0.06 and the “Anti-CD28 Fab (SEQ ID NOs: 202, 203) signal” value [2] was 0.43.

YCAGHLDVYMSKCL [Phage-781] was tested, and the “Anti-CD28 Fab signal … of CD28” value [1] was 0.09 and the “Anti-CD28 Fab (SEQ ID NOs: 202, 203) signal” value [2] was 0.96.

For YCEGHAPQHMDKCL [Phage-240], the “Anti-CD28 Fab signal” value [3] was 2.04 and the “Anti-CD28 Fab signal … of CD28” value [4] was 0.08.

For YCDGHAPEFIRKCL [Phage-754], the “Anti-CD28 Fab signal … of CD28” value [1] was 0.07 and the “Anti-CD28 Fab (SEQ ID NOs: 202, 203) signal” value [2] was 1.05.

In the case of YCDGHSDQYMWKCL [Phage-261], the “Anti-CD28 Fab signal” value [3] is reported as 2 and the “Anti-CD28 Fab signal … of CD28” value [4] is reported as 0.11.

For YCEGHSSEYLGKCL [Phage-750], the “Anti-CD28 Fab signal … of CD28” value [1] was 0.09 and the “Anti-CD28 Fab (SEQ ID NOs: 202, 203) signal” value [2] was 1.05.
